The series addresses T1, CTCF (UniProt P49711 1-727).
T1 sequence: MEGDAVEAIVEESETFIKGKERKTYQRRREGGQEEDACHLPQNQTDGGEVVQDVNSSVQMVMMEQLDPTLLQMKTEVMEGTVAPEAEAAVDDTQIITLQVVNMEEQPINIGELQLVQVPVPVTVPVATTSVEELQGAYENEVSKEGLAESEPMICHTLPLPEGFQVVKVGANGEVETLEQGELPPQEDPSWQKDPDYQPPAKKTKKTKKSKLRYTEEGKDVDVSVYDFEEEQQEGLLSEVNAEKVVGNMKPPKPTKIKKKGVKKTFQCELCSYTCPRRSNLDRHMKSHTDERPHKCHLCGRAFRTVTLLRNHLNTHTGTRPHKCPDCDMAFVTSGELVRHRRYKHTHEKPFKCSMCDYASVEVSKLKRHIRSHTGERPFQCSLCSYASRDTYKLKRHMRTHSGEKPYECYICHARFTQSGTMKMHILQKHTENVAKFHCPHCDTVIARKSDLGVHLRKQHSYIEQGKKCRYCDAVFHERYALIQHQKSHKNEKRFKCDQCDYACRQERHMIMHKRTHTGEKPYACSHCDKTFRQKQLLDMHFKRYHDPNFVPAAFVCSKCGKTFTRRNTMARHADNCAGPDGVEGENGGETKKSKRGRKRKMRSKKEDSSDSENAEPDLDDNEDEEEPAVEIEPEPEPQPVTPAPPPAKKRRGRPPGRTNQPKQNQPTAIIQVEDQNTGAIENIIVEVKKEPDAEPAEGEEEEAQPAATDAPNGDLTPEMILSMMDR
Kind of series: EMSA. (In general: In EMSA bound probe runs differently from free probe, usually more slowly.)

B1: CTCF WT (BZLF1 promoter CTCF site) (dsDNA)
DNA 1: TCGTCCAAATGGCCACGAGGGGGCGGGTGGCTCAGGTC
DNA 2: GACCTGAGCCACCCGCCCCCTCGTGGCCATTTGGACGA
B1: the binding result is on record as “binds”.

Source of the values: article PMC5521201.
